Test results: patent publication US20240174992A1, “SPLIT MODIFIED DEHALOGENASE VARIANTS” (Promega Corporation, priority 2022, published 2024)
Blank lines part the entries; values can stand above or below the binder they belong to.

How the values were obtained:
Assay in all cases: cell-based or functional assay
[1] = biological target: spHT 19 C-terminal fragment [20-297] fused to FRB or FKBP
[2] = biological target: spHT 80 C-terminal fragment [81-297] fused to FRB or FKBP
[3] = biological target: spHT 145 C-terminal fragment [146-297] fused to FRB or FKBP
[4] = biological target: spHT 133 C-terminal fragment [134-297] fused to FRB or FKBP
[5] = biological target: spHT 195 C-terminal fragment [196-297] fused to FRB or FKBP
[6] = biological target: spHT 157 C-terminal fragment [158-297] fused to FRB or FKBP
[7] = biological target: spHT 180 C-terminal fragment [181-297] fused to FRB or FKBP

Binder: MAEIGTGFPFDPHYVEVLG (peptide, part only; not given: FRB or FKBP partner, orientation, part only) [spHT 19 N-terminal fragment [1-19] fused to FRB or FKBP]
increase in JF646 fluorogenic signal at a N:C fragment ratio of 10 [1]: 25%
increase in TMR labeling efficiency on raising the N:C fragment ratio from 1.25 to 10 [1]: > 100%

B1: spHT 80 N-terminal fragment [1-80] fused to FRB or FKBP (protein, part only; not given: FRB or FKBP partner, orientation, part only)
chain, part: MAEIGTGFPFDPHYVEVLGERMHYVDVGPRDGTPVLFLHGNPTSSYVWRNIIPHVAPTHRCIAPDLIGMGKSDKPDLGYF
fold increase in JF646 fluorescence with 50 nM rapamycin (E. coli lysates) [2]: > 2 fold

B2: spHT 145 N-terminal fragment [1-145] fused to FRB or FKBP (protein, part only; not given: FRB or FKBP partner, orientation, part only)
chain, part: MAEIGTGFPFDPHYVEVLGERMHYVDVGPRDGTPVLFLHGNPTSSYVWRNIIPHVAPTHRCIAPDLIGMGKSDKPDLGYFFDDHVRFMDAFIEALGLEEVVLVIHDWGSALGFHWAKRNPERVKGIAFMEFIRPIPTWDEWPEFA
fold increase in JF646 fluorescence with 50 nM rapamycin (E. coli lysates) [3]: > 2 fold

B3: spHT 133 N-terminal fragment [1-133] fused to FRB or FKBP (protein, part only; not given: FRB or FKBP partner, orientation, part only)
chain, part: MAEIGTGFPFDPHYVEVLGERMHYVDVGPRDGTPVLFLHGNPTSSYVWRNIIPHVAPTHRCIAPDLIGMGKSDKPDLGYFFDDHVRFMDAFIEALGLEEVVLVIHDWGSALGFHWAKRNPERVKGIAFMEFIR
fold increase in JF646 fluorescence with 50 nM rapamycin (E. coli lysates) [4]: > 2 fold

B4: spHT 195 N-terminal fragment [1-195] fused to FRB or FKBP (protein, part only; not given: FRB or FKBP partner, orientation, part only)
chain, part: MAEIGTGFPFDPHYVEVLGERMHYVDVGPRDGTPVLFLHGNPTSSYVWRNIIPHVAPTHRCIAPDLIGMGKSDKPDLGYFFDDHVRFMDAFIEALGLEEVVLVIHDWGSALGFHWAKRNPERVKGIAFMEFIRPIPTWDEWPEFARETFQAFRTTDVGRKLIIDQNVFIEGTLPMGVVRPLTEVEMDHYREPFLN
fold increase in JF646 fluorescence with 50 nM rapamycin (E. coli lysates) [5]: > 2 fold

Continued, values first:

fold increase in JF646 fluorescence with 50 nM rapamycin (E. coli lysates) [6]: > 2 fold
B5: spHT 157 N-terminal fragment [1-157] fused to FRB or FKBP (protein, part only; not given: FRB or FKBP partner, orientation, part only)
chain, part: MAEIGTGFPFDPHYVEVLGERMHYVDVGPRDGTPVLFLHGNPTSSYVWRNIIPHVAPTHRCIAPDLIGMGKSDKPDLGYFFDDHVRFMDAFIEALGLEEVVLVIHDWGSALGFHWAKRNPERVKGIAFMEFIRPIPTWDEWPEFARETFQAFRTTDV

fold increase in JF646 fluorescence with 50 nM rapamycin (E. coli lysates) [7]: > 2 fold
B6: spHT 180 N-terminal fragment [1-180] fused to FRB or FKBP (protein, part only; not given: FRB or FKBP partner, orientation, part only)
chain, part: MAEIGTGFPFDPHYVEVLGERMHYVDVGPRDGTPVLFLHGNPTSSYVWRNIIPHVAPTHRCIAPDLIGMGKSDKPDLGYFFDDHVRFMDAFIEALGLEEVVLVIHDWGSALGFHWAKRNPERVKGIAFMEFIRPIPTWDEWPEFARETFQAFRTTDVGRKLIIDQNVFIEGTLPMGVVRP
